The source of these data is patent publication US20240344138A1, “TARGETED THERAPIES IN CANCER” (Feng Biosciences, Inc, priority 2021, published 2024).

The subject of test [1] is platinum-resistant or platinum-sensitive recurrent ovarian cancer. The test can be described thus: Clinical trial of PARP inhibitor and navicixizumab in PARP naive and PARP resistant cohorts, ORR by TME phenotype. The class given is in vivo, human. On the procedure: A clinical trial is run to determine whether ovarian cancer tumor microenvironment phenotypes correlate to clinical responses when patients are treated with a PARP inhibitor, and navicixizumab in PARP naïve patients or patients that previously progressed on PARP inhibitor. The analysis includes samples from two different cohorts (one consisting of PARP inhibitor naïve patients and one consisting of PARP resistant patients). 40 patients from each cohort are randomized to 2 different treatment arms (20 patients in each arm). Patients are randomized to receive either a PARP inhibitor in combination with navicixizumab or PARP inhibitor monotherapy (PARP naïve cohort) or PARP inhibitor in combination with navicixizumab or navicixizumab monotherapy (PARP resistant). RNA gene signatures are analyzed from tumor samples acquired before the treatments and TME phenotypes are determined. Patients are followed for clinical response.
Ovarian cancer patients are randomized to receiving a regimen of PARP inhibitor (Olaparib, Rucaparib, Niraparib, etc.) plus navicixizumab, PARP monotherapy (PARP naive) or Navicixizumab monotherapy. The combination of PARP inhibitor/Navicixizumab increases overall response rate in patients with recurrent ovarian cancer compared to navicixizumab alone in both the PARP naive and PARP resistant cohorts as shown in TABLE 35. […] Eighty (80) total patients are enrolled, 20 in each of the treatment groups across the two cohorts with equal representation across the 4 stromal phenotypes (5 in each phenotype per treatment group). The correlation between each TME phenotype is tested against clinical outcome data. In immune suppressed (IS), and angiogenic (A) patients the use of the regimen of PARPi/Navicixizumab confers benefit in comparison to patients classified to immune active (IA) and immune desert (ID) TME phenotype classes as shown in the TABLE 36.

Test [2] concerns platinum-resistant or platinum-sensitive recurrent triple negative breast cancer. The test can be described thus: Clinical trial of PARP inhibitor, immune checkpoint inhibitor and navicixizumab, ORR by TME phenotype. The class given is in vivo, human. As to the method: A clinical trial is run to determine whether the triple negative breast cancer (TNBC) tumor microenvironment phenotypes correlate to clinical responses when patients are treated with a PARP inhibitor, an immune checkpoint inhibitor, and Navicixizumab after recurrence on platinum-based chemotherapy. The analysis includes samples from two different cohorts (one consisting of platinum-sensitive patients and one consisting of platinum-resistant patients). 40 patients from each cohort are randomized to 2 different treatment arms (20 patients in each arm). Patients are randomized to receive either (i) a PARP inhibitor and an immune checkpoint inhibitor or (ii) a PARP inhibitor, an immune checkpoint inhibitor and Navicixizumab. RNA gene signatures are analyzed from tumor samples acquired before the treatments and TME phenotypes are determined. Patients are followed for clinical response.
TNBC patients are randomized to receiving a regimen of PARP inhibitor (olaparib, rucaparib, niraparib, etc.) plus an immune checkpoint inhibitor (anti-PD-(L)1—i.e., an inhibitor to PD-1 or PD-L1) therapy, or a regimen of PARP inhibitor/immune checkpoint inhibitor/Navicixizumab. The combination of PARP inhibitor/immune checkpoint inhibitor/Navicixizumab increases overall response rate in patients with TNBC compared to the regimen of PARP inhibitor/immune checkpoint inhibitor alone in both the platinum-sensitive and platinum-resistant cohorts as shown in TABLE 37. […] Eighty (80) total patients are enrolled, 20 in each of the treatment groups across the two cohorts with equal representation across the 4 stromal phenotypes (5 in each phenotype per treatment group). The correlation between each TME phenotype is tested against clinical outcome data. In immune active (IA), immune suppressed (IS), and angiogenic (A) patients the use of the regimen of PARPi/immune checkpoint inhibitor/Navicixizumab confers benefit in comparison to patients classified to immune desert (ID) TME phenotype classes as shown in the TABLE 38.

Where [3] appears, read: PARP resistant cohort, n = 20 per treatment group.

B1: PARPi/Navicixizumab (antibody, chains of the INN, looked up, V domains shown)
VH: QVQLVQSGAEVKKPGASVKISCKASGYSFTAYYIHWVKQAPGQGLEWIGYISNYNRATNYNQKFKGRVTFTTDTSTSTAYMELRSLRSDDTAVYYCARDYDYDVGMDYWGQGTLVTVSS
VL: DIVMTQSPDSLAVSLGERATISCRASESVDNYGISFMKWFQQKPGQPPKLLIYAASNQGSGVPDRFSGSGSGTDFTLTISSLQAEDVAVYYCQQSKEVPWTFGGGTKVEIK
VH2: QVQLVQSGAEVKKPGASVKVSCKASGYTFTNYWMHWVRQAPGQGLEWMGDINPSNGRTSYKEKFKRRVTLSVDKSSSTAYMELSSLRSEDTAVYFCTIHYDDKYYPLMDYWGQGTLVTVSS
VL2: DIVMTQSPDSLAVSLGERATISCRASESVDNYGISFMKWFQQKPGQPPKLLIYAASNQGSGVPDRFSGSGSGTDFTLTISSLQAEDVAVYYCQQSKEVPWTFGGGTKVEIK
modifications: with PARP inhibitor
Take B1: the “Overall response rate (ORR)” value came out at 65% in test [1] (PARP naiive cohort, n = 20 per treatment group) and 40% in test [1] (setting [3]).

B2: PARPi/Navicixumab (antibody, chains of the INN, looked up, V domains shown)
VH: QVQLVQSGAEVKKPGASVKISCKASGYSFTAYYIHWVKQAPGQGLEWIGYISNYNRATNYNQKFKGRVTFTTDTSTSTAYMELRSLRSDDTAVYYCARDYDYDVGMDYWGQGTLVTVSS
VL: DIVMTQSPDSLAVSLGERATISCRASESVDNYGISFMKWFQQKPGQPPKLLIYAASNQGSGVPDRFSGSGSGTDFTLTISSLQAEDVAVYYCQQSKEVPWTFGGGTKVEIK
VH2: QVQLVQSGAEVKKPGASVKVSCKASGYTFTNYWMHWVRQAPGQGLEWMGDINPSNGRTSYKEKFKRRVTLSVDKSSSTAYMELSSLRSEDTAVYFCTIHYDDKYYPLMDYWGQGTLVTVSS
VL2: DIVMTQSPDSLAVSLGERATISCRASESVDNYGISFMKWFQQKPGQPPKLLIYAASNQGSGVPDRFSGSGSGTDFTLTISSLQAEDVAVYYCQQSKEVPWTFGGGTKVEIK
modifications: with PARP inhibitor
As to B2, the “Overall response rate (ORR)” value in test [1] (PARP naive cohort, TME phenotype A (n = 5)) is 100; in test [1] (PARP naive cohort, TME phenotype IA (n = 5)) it was 40; in test [1] (PARP naive cohort, TME phenotype ID (n = 5)), 40; in test [1] (PARP naive cohort, TME phenotype IS (n = 5)), 80; in test [1] (PARP resistant cohort, TME phenotype A (n = 5)), 60; in test [1] (PARP resistant cohort, TME phenotype IA (n = 5)) it was 20. The “Overall response rate (ORR)” value amounted to 20 in test [1] (PARP resistant cohort, TME phenotype ID (n = 5)) and 60 in test [1] (PARP resistant cohort, TME phenotype IS (n = 5)).

B3: PARPi/Immune Checkpoint Inhibitor/Navixicizumab (antibody, chains of the INN, looked up, V domains shown)
VH: QVQLVQSGAEVKKPGASVKISCKASGYSFTAYYIHWVKQAPGQGLEWIGYISNYNRATNYNQKFKGRVTFTTDTSTSTAYMELRSLRSDDTAVYYCARDYDYDVGMDYWGQGTLVTVSS
VL: DIVMTQSPDSLAVSLGERATISCRASESVDNYGISFMKWFQQKPGQPPKLLIYAASNQGSGVPDRFSGSGSGTDFTLTISSLQAEDVAVYYCQQSKEVPWTFGGGTKVEIK
VH2: QVQLVQSGAEVKKPGASVKVSCKASGYTFTNYWMHWVRQAPGQGLEWMGDINPSNGRTSYKEKFKRRVTLSVDKSSSTAYMELSSLRSEDTAVYFCTIHYDDKYYPLMDYWGQGTLVTVSS
VL2: DIVMTQSPDSLAVSLGERATISCRASESVDNYGISFMKWFQQKPGQPPKLLIYAASNQGSGVPDRFSGSGSGTDFTLTISSLQAEDVAVYYCQQSKEVPWTFGGGTKVEIK
modifications: with PARP inhibitor and checkpoint inhibitor
Regarding B3, in test [2] (Platinum-resistant cohort, n = 20 per treatment group), the “Overall response rate (ORR)” value is listed as 45%.

B4: Navixicizumab (antibody, chains of the INN, looked up, V domains shown)
VH: QVQLVQSGAEVKKPGASVKISCKASGYSFTAYYIHWVKQAPGQGLEWIGYISNYNRATNYNQKFKGRVTFTTDTSTSTAYMELRSLRSDDTAVYYCARDYDYDVGMDYWGQGTLVTVSS
VL: DIVMTQSPDSLAVSLGERATISCRASESVDNYGISFMKWFQQKPGQPPKLLIYAASNQGSGVPDRFSGSGSGTDFTLTISSLQAEDVAVYYCQQSKEVPWTFGGGTKVEIK
VH2: QVQLVQSGAEVKKPGASVKVSCKASGYTFTNYWMHWVRQAPGQGLEWMGDINPSNGRTSYKEKFKRRVTLSVDKSSSTAYMELSSLRSEDTAVYFCTIHYDDKYYPLMDYWGQGTLVTVSS
VL2: DIVMTQSPDSLAVSLGERATISCRASESVDNYGISFMKWFQQKPGQPPKLLIYAASNQGSGVPDRFSGSGSGTDFTLTISSLQAEDVAVYYCQQSKEVPWTFGGGTKVEIK
For the molecule B4, the “Overall response rate (ORR)” value in test [1] (setting [3]) amounted to 25%.

B5: PARPi/immune checkpoint inhibitor/Navicixumab (antibody, chains of the INN, looked up, V domains shown)
VH: QVQLVQSGAEVKKPGASVKISCKASGYSFTAYYIHWVKQAPGQGLEWIGYISNYNRATNYNQKFKGRVTFTTDTSTSTAYMELRSLRSDDTAVYYCARDYDYDVGMDYWGQGTLVTVSS
VL: DIVMTQSPDSLAVSLGERATISCRASESVDNYGISFMKWFQQKPGQPPKLLIYAASNQGSGVPDRFSGSGSGTDFTLTISSLQAEDVAVYYCQQSKEVPWTFGGGTKVEIK
VH2: QVQLVQSGAEVKKPGASVKVSCKASGYTFTNYWMHWVRQAPGQGLEWMGDINPSNGRTSYKEKFKRRVTLSVDKSSSTAYMELSSLRSEDTAVYFCTIHYDDKYYPLMDYWGQGTLVTVSS
VL2: DIVMTQSPDSLAVSLGERATISCRASESVDNYGISFMKWFQQKPGQPPKLLIYAASNQGSGVPDRFSGSGSGTDFTLTISSLQAEDVAVYYCQQSKEVPWTFGGGTKVEIK
modifications: with PARP inhibitor and checkpoint inhibitor
In the case of B5, the “Overall response rate (ORR)” value came to 40 in test [2] (Platinum-resistant cohort, TME phenotype A (n = 5)); 60 in test [2] (Platinum-resistant cohort, TME phenotype IA (n = 5)); 0 in test [2] (Platinum-resistant cohort, TME phenotype ID (n = 5)); 80 in test [2] (Platinum-resistant cohort, TME phenotype IS (n = 5)); 100 in test [2] (Platinum-sensitive cohort, TME phenotype A (n = 5)); 80 in test [2] (Platinum-sensitive cohort, TME phenotype IA (n = 5)). Also, the “Overall response rate (ORR)” value in test [2] (Platinum-sensitive cohort, TME phenotype ID (n = 5)) worked out at 60; in test [2] (Platinum-sensitive cohort, TME phenotype IS (n = 5)), 80.

B6: PARPi/Immune Checkpoint Inhibitor/Navicixizumab (antibody, chains of the INN, looked up, V domains shown)
VH: QVQLVQSGAEVKKPGASVKISCKASGYSFTAYYIHWVKQAPGQGLEWIGYISNYNRATNYNQKFKGRVTFTTDTSTSTAYMELRSLRSDDTAVYYCARDYDYDVGMDYWGQGTLVTVSS
VL: DIVMTQSPDSLAVSLGERATISCRASESVDNYGISFMKWFQQKPGQPPKLLIYAASNQGSGVPDRFSGSGSGTDFTLTISSLQAEDVAVYYCQQSKEVPWTFGGGTKVEIK
VH2: QVQLVQSGAEVKKPGASVKVSCKASGYTFTNYWMHWVRQAPGQGLEWMGDINPSNGRTSYKEKFKRRVTLSVDKSSSTAYMELSSLRSEDTAVYFCTIHYDDKYYPLMDYWGQGTLVTVSS
VL2: DIVMTQSPDSLAVSLGERATISCRASESVDNYGISFMKWFQQKPGQPPKLLIYAASNQGSGVPDRFSGSGSGTDFTLTISSLQAEDVAVYYCQQSKEVPWTFGGGTKVEIK
modifications: with PARP inhibitor and checkpoint inhibitor
In the case of B6, the “Overall response rate (ORR)” value in test [2] (Platinum-sensitive cohort, n = 20 per treatment group) is given as 80%.
